Tested on: MS2 coat protein
Test: apparent KD of MS2 coat protein; designed switch direction (-1 OFF switch, 1 ON switch): -1; higher = weaker reporter binding
Outline: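 The buffer was Tris-HCl pH 7.5 with KCl, MgCl2, BSA, DTT, tRNA and Tween-20. In it, SNAP-549-labelled MS2 coat protein was titrated in doubling steps from 0.7 or 1.5 nM to 3 µM over chip-bound RNA switches transcribed by stalled E. coli RNA polymerase on Illumina chips. Apparent KD is the per-design median over clusters of curve fits to normalised fluorescence.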

[1] = input ligand: microRNA oligo, concentration not stated
[2] = Eterna round: R95, input ligand: FMN 200 uM
[3] = Eterna round: R95, input ligand: microRNA oligo, concentration not stated
[4] = Eterna round: R95, input ligand: none

Sequence | apparent KD of MS2 coat protein (input ligand: FMN 200 uM) | apparent KD of MS2 coat protein [1] | apparent KD of MS2 coat protein (input ligand: none) | apparent KD of MS2 coat protein [2] | apparent KD of MS2 coat protein [3] | apparent KD of MS2 coat protein [4]
CUCCGGCGUGUAGGAUAUGGAUCCGAUUAGGAUCCAGAAGGACAUGAGGAUCACCCAUGUACAUGUAGACGGUCGUCACCGGGC [salish99_ExNG1_r04_208] (Eterna round: R96, puzzle: Exclusion NG 1) | 195 nM | 32 nM | 42.1 nM | – | – | –
CUCCUCAUGGCGCCUAAACACAUGAGGAUCACCCAUGUACAGGCUUUCUGCCGUCUUAUAAUAAAACCGAGGAUGCG [Soedlexe] (puzzle: Sensor v3, turn-off variant 1) | – | – | – | 33.6 nM | 212 nM | 42.1 nM
CUCCUCCCGAAGGAUAUCCACGCCAACUUCGUAGGAGAAGGUCGGACAUGAGGAUCACCCAUGUGGCCAUGGUU [Gezateza] (puzzle: Exclusion 6) | – | – | – | – | 16 nM | –
CUCCUCGUGGCGCCUAAACACAUGAGGAUCACCCAUGUACAGGCUUUUUGCCGUCUUACAAUAAAACCGAGGAUACG [Inveon] (puzzle: Sensor v3, turn-off variant 1) | – | – | – | 19.8 nM | 50.8 nM | 20.4 nM
CUCGGACAUGAGGAUCACCCAUGUGAGGAUAUGGUGCUAUCGUCAUUAGACGAUUGCGUUAGAAGGCACAAAUG [LRO-Excl1-28] (puzzle: Exclusion 1) | – | – | – | – | 35.2 nM | –
CUCGGGAGUCAGGAUAUCGGCACAUAUCAAUCACGAGAAGGGACGACAUGAGGAUCACCCAUGUGGGAAAAGAA [Bivetilaza] (puzzle: Exclusion 6) | – | – | – | 92.9 nM | 38.1 nM | 41.7 nM
CUCGUGUGAGGAUAUUCACACCCGUCAAAACAACGGACAAAGAAGAAGGCACAUGAGGAUCACCCAUGUAAAGA [Usenisor] (Eterna round: R97, puzzle: Exclusion 4) | 92.1 nM | – | 106 nM | – | – | –
CUCGUGUUAGGAUAUCUAUCGCGGAUGACAGAGAGGACGUUGGAGAAGGAACAUGAGGAUCACCCAUGUUCUGG [Eternabot (L2) Solution 86] (Eterna round: R97, puzzle: Exclusion 4) | 18.8 nM | – | 14.5 nM | – | – | –
CUCUAGUCAGGAUAUCACGUUUACCGUGCACUCACAAAGCCUGAGAAGGGACUUGAGGAUCACCCAAGUGGGAA [Reedbequ] (Eterna round: R97, puzzle: Exclusion 4) | 211 nM | – | 231 nM | – | – | –
CUCUCUCAUGUGAGGAUAUCGAGGCAGUCCGCAAACGAGAAGGUACAUGAGGAUCACCCAUGUCAACAGUAAUG [BmEX4 C.8] (Eterna round: R97, puzzle: Brourd's mod of Exclusion 4) | 143 nM | – | 33 nM | – | – | –
CUCUCUCGAGGAUAUACCGUAUGGUGGAAUCUCCUCGGAAGACAUGAGGAUCACCCAUGUAGAAGGCGAGAUGG [Eternabot (L2) Solution 64] (Eterna round: R97, puzzle: Exclusion 2) | 144 nM | – | 31.3 nM | – | – | –
CUCUUGUUAGGAUAUCAAACUGGCAGCGGAGCUGGCAGAAGUGAGAAGGGACAUGAGGAUCACCCAUGUAAGAA [Aristeza] (puzzle: Exclusion 4) | – | – | – | – | 70.2 nM | –
CUGAACUGAGGAUAUACAUGAGGAUCACCCAUGUGAUGUAGUGCACGCGUACGUGUACGUAGAAGGCAGUUCAG [Mat - Exclusion 3 - Eli Mod - D42] (Eterna round: R97, puzzle: Exclusion 3) | 56.1 nM | – | 19.8 nM | – | – | –
CUGAAGAAGUUAGUGGCCUACAUGAGGAUCACCCAUGUGAGGGACAUGUCGAGGCAGAAGCUGAGUGCUCGUCUGUA [JR_SV3TOV1_Sub042] (puzzle: Sensor v3, turn-off variant 1) | – | – | – | 16 nM | 20 nM | 17 nM
CUGACUCAAGGAUAUUGUACUGCUGACAUGAGGAUCACCCAUGUAUGUUAACUCGGCCGACGAGAAGGUGACAAAA [BotMod 7 - Jieux - Exclusion 5] (Eterna round: R97, puzzle: Exclusion 5) | 126 nM | – | 111 nM | – | – | –
CUGAGCUGAGGAUAUACAUGAGGAUCACCCAUGUGUUGGAGCUUGCGUACAGGCAGAUGUAGAAGGCAGUUCGG [JL-ex3-3.32 Brourd mod] (puzzle: Exclusion 3) | – | – | – | – | 19.5 nM | –

Sequence | apparent KD of MS2 coat protein (input ligand: FMN 200 uM) | apparent KD of MS2 coat protein [1] | apparent KD of MS2 coat protein (input ligand: none) | apparent KD of MS2 coat protein [2] | apparent KD of MS2 coat protein [3] | apparent KD of MS2 coat protein [4]
CUGAGGUAGCGGUCCUAUGACAUGAGGAUCACCCAUGUACCUUGCUUUGAGCUUUUAGCUCGUCUUAUGAUUCUCGG [Mat - Sensor v3 - turn-off var 1 - JL Mod - D43] (puzzle: Sensor v3, turn-off variant 1) | – | – | – | 271 nM | 235 nM | 446 nM
CUGCCGAGAGGAUAUACUAAGCGAAGAGCCUCAUAAAAGUUACAUGAGGAUCACCCAUGUAGAAGGCUUGGGAG [Eternabot (Original) Solution 38] (Eterna round: R97, puzzle: Exclusion 2) | 104 nM | – | 54.4 nM | – | – | –
CUGGACCCGGCAGGAUAUAUUGUGGGCGGGCGUGGAACGACAUGAGGAUCACCCAUGUGAUUGAGGUAGAAGGGCCGAGAGGUC [Excl-NG2-LRO20] (Eterna round: R96, puzzle: Exclusion NG 2) | 38.5 nM | 30.6 nM | 47.7 nM | – | – | –
CUGGAGUCAGGAUAUGACGCAGUCCGCCCAAGUGGCGGAAAUCAGAAGGGACUUGAGGAUCACCCAAGUAAAAG [Resorama] (Eterna round: R97, puzzle: Exclusion 4) | 26.8 nM | – | 29.8 nM | – | – | –
CUGGUCCGAGGAUAUAUAUUGUGAUACAUGAGGAUCACCCAUGUAAUAAUAUGGAUAUAAAUAGAAGGCGGACUAG [Mat - Exclusion 5 - JL mod - D49] (puzzle: Exclusion 5) | – | – | – | 35.8 nM | 23 nM | 27.7 nM
CUGGUCCGAGGAUAUAUUAAGUGAAACAUGAGGAUCACCCAUGUUAUUUAAUGGAAGUAAAUAGAAGGCGGACUAG [Mat - Exclusion 5 - JL mod - D54] (puzzle: Exclusion 5) | – | – | – | 38.7 nM | 48.8 nM | 43.5 nM
CUGGUUCUAGGAUAUGCACUCACGAUCCUCCUUCAAUCGCAACAUGAGGAUCACCCAUGUAGAAGGAGAAAGUA [Eternabot (L1) Solution 91] (Eterna round: R97, puzzle: Exclusion 2) | 18.5 nM | – | 18.6 nM | – | – | –
CUGUAACAUGAGGAUCACCCAUGUCAGGAUAUCUAUCAUAGCAUCGAAAGAUGCGGGUAGAGAAGGGACUAUCC [ChP Ext 10-04-2015 #8] (puzzle: Exclusion 1) | – | – | – | – | 14.5 nM | –
CUGUACUGAGGAUAUACAUGAGGAUCACCCAUGUGAUCUAGUGCACGCGUACGUGUACGUAGAAGGCAGUACAG [Mat - Exclusion 3 - Eli Mod - D38] (Eterna round: R97, puzzle: Exclusion 3) | 792 nM | – | 56.5 nM | – | – | –
CUGUAGCUAUGAGGAUAUGCCACAAAAGUAGUUGCAGAAGGCAUCCCUACCCAGUAAGAACAUGAGGAUCACCCAUGUGAUCUG [Eternabot solution 43] (Eterna round: R96, puzzle: Exclusion NG 1) | 71.6 nM | 44.5 nM | 63.4 nM | – | – | –
CUGUGCACGCUGCGGUCCUACAUGAGGAUCACCCAUGUGGUCUGGUGGCGUGGGUCGCCGGACUUGGCUCGUCUUGG [salish99_S_TOV1_R5_025] (Eterna round: R97, puzzle: Sensor, turn-off variant 1) | 15.3 nM | – | 15.9 nM | – | – | –
CUGUUCCGUGUAGGAUAUGCAUAUUCUCAUUAUGCAGAAGGACAUGAGGAUCACCCAUGUAUGUUAUUAUCAUAUGUUACAUGU [Design 5] (Eterna round: R96, puzzle: Exclusion NG 1) | – | 29.7 nM | – | – | – | –
CUGUUCCGUGUAGGAUAUGCAUAUUCUCAUUAUGCAGAAGGACAUGAGGAUCACCCAUGUAUGUUAUUAUCAUGUGUUACAUGC [Design 7] (Eterna round: R96, puzzle: Exclusion NG 1) | 220 nM | 35.9 nM | 38.8 nM | – | – | –
CUUAGGUGAGGAUAUUAGUAGUAAAUAAAUAAAAUUAUUACUGAGAAGGCACAUGAGGAUCACCCAUGUUCCUC [Salish 062 v3] (Eterna round: R97, puzzle: Exclusion 4) | 548 nM | – | 37 nM | – | – | –
CUUCACCCACCAGAGCUCACCCACAUACCUGCUCAGGUGACAUGAGGAUCACCCAUGUUUUUUGCCCGUCUUAUCUU [Atquertebi] (puzzle: Sensor v3, turn-off variant 2) | – | – | – | 33.1 nM | 181 nM | 34.3 nM
CUUCAGUCAGGAUAUCUGCACGCUGGUGAGACCGGACGGAAGGAGAAGGGACAUGAGGAUCACCCAUGUAAAGC [Xesoar] (puzzle: Exclusion 4) | – | – | – | – | 15.7 nM | –
